In the nanobody polyreactivity screen of Harvey et al. (2022):

Assay: yeast display, Sf9 membrane polyspecificity reagent, FACS + sequencing; frameworks hold sequencing errors
How it was run: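 After 36–48 hours of galactose induction, yeast (Saccharomyces cerevisiae BJ5465) displaying a synthetic nanobody library were stained at 4 °C for 1 hour with 10% biotinylated, detergent-solubilized Sf9 membrane reagent. Streptavidin microbeads enriched the stained cells before FACS sorting into low and high (top ~1%) gates on anti-HA and streptavidin fluorescence. Each clone's polyreactivity label reflects its gate of origin.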

| Sequence | polyreactivity (PSR sort gate) |
| --- | --- |
| QVQLVESGGGLVQAGGRLRISCAASGSIFKGYARGWSRQGPGKERELVAAISGSGTSTYYADSVKGRFTISRDNAKNTVYLQMNSLTPEDTAVYYCATGWYTVFSRRMYSWGQGTQVTVSS | high polyreactivity |
| QVQLVESGGGLVQAGGRLRISCAASGSTFYFNAMGWYRQAPGKERELVAAITRGGSTYADSVKGRFTISRDNAKYTVYLQMNSMKPEDTAVYYCNAVYGVYDFIYWGQGTQVTVSS | low polyreactivity |
| QVQLVESGGGLVQAGGRLRISCAASGTIFAYALGWYRPAPGKERELVAGISRRGGSTYYADSVKGRFTISRDNAKKTVYLQMKSLKPEDTAVYYCAADYYTLYPVYIKRYGYWGQGTQVTVSA | high polyreactivity |
| QVQLVESGGGLVQAGGRLRLICAASGSTFRANIMRWSRQAPGKERELVAAITSGGGSTYYADSVKGRFTISRDNAKNTVYLQMNSLKPEDTAVYYCAARIYHDIDTRSYYWGQGTQVTVSS | high polyreactivity |
| QVQLVESGGGLVQAGGRLRLICAAYGSTFSLYALGWYRQAPGKERELVADINSGGGTYYADSVKGRFTISRDNAKNTVYLQMNSVKPEDTAVYYCNAPVARGEASYYWGHGTQVTVSS | high polyreactivity |
| QVQLVESGGGLVQAGGRLRLSCAASASTIVGNAMGWYRQAPGKERELVATISNSGGRTYYADSVKGRFTISRDNSKYTVYLQMNSLKPEDTAVYYCNADIYPHDGYPWQGDYDYWGQGTQVTVSS | low polyreactivity |
| QVQLVESGGGLVQAGGRLRLSCAASGFIIARNAMGWYRQAPGKERELVAASSASGGRTYYADSVKGRFTISRDNAKNTVYLQMNSLKPEDTAVYYCAARRDGRSGSFNYWGQGTQVTVSS | high polyreactivity |
| QVQLVESGGGLVQAGGRLRLSCAASGFNFHYYAMGWYRQAPGKERELVAAISWSSGRTYYADSVKGRFTISRDNEKNTVYLQMNSLKPEDTAVYYCAASSYNRGDYWGQGTQVTVSS | high polyreactivity |
| QVQLVESGGGLVQAGGRLRLSCAASGFTFIRSAMGWYRQAPGKERELVAAISWSDDTTYYADSVKGRFTISRDNAKNTVYLQMNSLKPEDTAVYYCAAEVWYSYAEYDYWGQGTQVTVSS | high polyreactivity |
| QVQLVESGGGLVQAGGRLRLSCAASGFTFKRNAMGWYRQAPGKERELVAAITWSGGSTYYADSVKGRFTISRDNAKNTVYLQMNSLKPEDTAVYYCAALYRSRYYAGDYLGQGTQVTVSS | high polyreactivity |
| QVQLVESGGGLVQAGGRLRLSCAASGFTFLDYAMGWYRQAPGKERELVASISSSGGSTRFADSVKGRFTISRDNAKNTVYLQMNSLKPEDTAVYYCNADVDLFGAAYGYDYWGQGTQVTVSS | low polyreactivity |
| QVQLVESGGGLVQAGGRLRLSCAASGFTFNRNAMGWYRQAPGKERELVAAISDSGDNTYYADSVKGRFTISRDNAKNTVYLQMNSLKPEDTAVYYCATSFYGFSYHWFDYWGQGTQVTVSS | low polyreactivity |
| QVQLVESGGGLVQAGGRLRLSCAASGFTFPLYTMGWYRQEPGKERELVAAITWSGGSTYADSLKGRFTISRDNAKNTVYLQMNSLNPEDTEVYYCNRRLQPRGAGHNSWGQGTQVTVSS | high polyreactivity |
| QVQLVESGGGLVQAGGRLRLSCAASGFTFRYYAMGWYRQAPGKERELVAAISGSGVSTYYADSVKGRFTISRDNAKNTVYLQMNSLKPEDTAVYYCAAGYPGHYYKYDYWGQGTQVTVSS | high polyreactivity |
| QVQLVESGGGLVQAGGRLRLSCAASGFTFSRNTLGWYRQAPGKERELVARITKRGGTTYYADSVKGRFTISRDNAKNTVYLQMNSLKPEDTAVYYCATVGQPSYRAPDGFNYWGQGTQVTVSS | high polyreactivity |
| QVQLVESGGGLVQAGGRLRLSCAASGFTFYDNAMGWYRQAPGKERELVAGINSGDSTFYAVSVKGRITISRDNAKNTVYLQMTSLKPEDTGFYYGAADWAWLQWSYDYWGQGTQVTVSS | low polyreactivity |
| QVQLVESGGGLVQAGGRLRLSCAASGFTFYYYAMGWYRQAPGKEREMVAAISRSGGSTYYADSVKGRFTISRDNAKNTVYLQMNSLKPEDTAVYYCNTLRRTWFQENDYWGQGTQVTVSS | high polyreactivity |
| QVQLVESGGGLVQAGGRLRLSCAASGFTIRLYTMGWYRQAPGKERELVAAITYSGDSTYYADSVKGRFTISRDNAKNTVYLQMNSLKPVDTAVYYCAARKYYARYYWGQGTQVTVSS | high polyreactivity |
| QVQLVESGGGLVQAGGRLRLSCAASGFTLVGYAMGWSRQAPGKERELVAAISSGGGSTYYADSVKGRFTISRDNAKNTVYLQMNSLKPEDTAVYYCAVYVDYYGYGYWGQGTQVTVSS | high polyreactivity |
| QVQLVESGGGLVQAGGRLRLSCAASGGTFRLYTMASYRQAPGKERELVAGISSSSGSTYYADSVKGRFTISRDNAKNTVYLQMNSLKPEDTAVYYCAAYWPRSRYDYWGQGTQVTVSS | high polyreactivity |
| QVQLVESGGGLVQAGGRLRLSCAASGISFRFNAMGWYRQAPGKEREFVAAITYSGDSTYDADSVMGRFTISRDNAKNTVYLQKNSLKPEDTAVYYCAADYYAIYRRIFYYWGQGTQVTVSS | low polyreactivity |
| QVQLVESGGGLVQAGGRLRLSCAASGITFFWNAMGWYRQAPGKERELVAAISSGAGTTYADSVKGRFTISRDNAKNTVYLQMNSLKPEDTAVYYCAKRVDAYGWWGRSSGVLSDYWGQGTQVTVSS | low polyreactivity |

| Sequence | polyreactivity (PSR sort gate) |
| --- | --- |
| QVQLVESGGGLVQAGGRLRLSCAASGITFLNYAMGWYRPAPRKERELVAAISWSGGRTYYADSVKGRFTISRDNAKNTVFLQMNSLKPEDNAVYYCAADRGVNSYGYWGQGTQVTVSS | high polyreactivity |
| QVQLVESGGGLVQAGGRLRLSCAASGITFRSYAMGWYRQAPGKESELVAAIRSGGSTSYADSVKGRFTISRDNAKNTVYLQMNSLKPEDTAVYYCAAGGYVPLPDMTFWKFGYWGQGTQVTVSS | low polyreactivity |
| QVQLVESGGGLVQAGGRLRLSCAASGITFRYYAMGWYRQAPGKERELVAAITRSGTSTYYADSVKGRFTISRDNAKNTVYLQMNSLKPEDTAVYYCNAEYYHSSTGDDFDYWGQGTQVTVSS | low polyreactivity |
| QVQLVESGGGLVQAGGRLRLSCAASGITFYHYAMGWYRQAPGKERELVAAITRSGGRTYYAVSVKGRFTISRDTANNTVYVEMYSLKPEVTAVYYSAARWQKTAGRYYYWGQGTQVTGSS | high polyreactivity |
| QVQLVESGGGLVQAGGRLRLSCAASGITFYRYAMGWYIQAPGKERELVASISSRGSSSYYADSVKGRFTISRDNAKNTVYLQRNSLKPEDTAVYYCAKSRGSRGFVASTYNYWGQGTQVTVSS | high polyreactivity |
| QVQLVESGGGLVQAGGRLRLSCAASGLIFYDNMGWYRQPPGKERELVAAITWSGGSTYYADSVKGRFTISRDNAKNTVYLQMNSLKPEDTAVSYCNADLDSGYGSYDYWGQGTQVTVSS | low polyreactivity |
| QVQLVESGGGLVQAGGRLRLSCAASGLIIEWYAMGWFRQAPGKERELVAAITGRGSSTFYADSVKGRFTISRDNAKNTVYLQMNSLKPEDTGVYYCAVATVKQYRSDYWGQGTQVTVSS | low polyreactivity |
| QVQLVESGGGLVQAGGRLRLSCAASGLIIKLYAMGWYRQAPGKERELVAAITDRGGSTYYADSVKGRFTISRDNAKNTVYLQMNSLKPEDTAVYYCAAPYAGWRDGGDYWGQGTQVTVSS | low polyreactivity |
| QVQLVESGGGLVQAGGRLRLSCAASGLILSSNALGWYRQAPGKARELVAAITWDGDRTYADSVKGRFTISRDNAKNTVYLQQNSLKPEDTAVYYCAADKQYYWYDWSYEYWGQGTQVTVSW | low polyreactivity |
| QVQLVESGGGLVQAGGRLRLSCAASGNTFGPYDMGWYRQAPGKERELVAGITSGGSTYYADSVKGRFTISRDNAKITVYLQMNSLKPEDTAVYYCAADYFLWVYWYDYWGQGTQVTVSS | high polyreactivity |
| QVQLVESGGGLVQAGGRLRLSCAASGNTFYLNAIGWYRQAPGKERELVAAITIRGDSTYYADSVKGRFTISRDNAKNTVYLQMISLKPEDTAVYSCAAPWAWNTGYRVYYGGQGTQVTVSS | high polyreactivity |
| QVQLVESGGGLVQAGGRLRLSCAASGNTLRYYAMGWYRQAPGKERELVAAISESGGRTYYADSVKGRFTISRDNAKNTVYLQMNSLKPEDTAVYYCAASRWGGTWWYGYNYWGQGTQVTVSS | high polyreactivity |
| QVQLVESGGGLVQAGGRLRLSCAASGRIFDTYAMGWYRQAPGKERELVASINWSAGSTYYADSVKGRFTISRDNAMNTVYLQMNSLKPEDTAVYYCATYSSYYWQSSYVYWEFDYWGQGTQVTVSS | high polyreactivity |
| QVQLVESGGGLVQAGGRLRLSCAASGRIFGVNAMGWYRQAPGKERELVAVISSGGSTYYADSVKGRFTISRDNAKNTVYLQMNSLKPEDTAVYYCNAVVGRWFPYNLSDYWGQGTQVTVSS | low polyreactivity |
| QVQLVESGGGLVQAGGRLRLSCAASGRIFKDNAMGWYRQAPGKERELVAAISSGASTSYADSVKGRFTISRDNAKNTVYLQMNSLKPEDTAVYYCNRGGDLYYPGWLFDYWGQGTQVTVSS | low polyreactivity |
| QVQLVESGGGLVQAGGRLRLSCAASGRIFKTYAMGWYRQAPGKERELVAAISIRGGSTYYAVSVKGRFTISRDNAKNTVYLQMNSLKPEDTAVYYCNALYGRQIVDYDYWGQGTQVTVSS | high polyreactivity |
| QVQLVESGGGLVQAGGRLRLSCAASGRIFNKYVMGWYRQAPGKERELVAAISGRGGSTYYADSVKGRFTISRDYEKNTVYLQMNSLKPEDSAVYYCAAEYQGRRMYYWGQGTQVTVSS | high polyreactivity |
| QVQLVESGGGLVQAGGRLRLSCAASGRIFPKNTMGWNRPAPGKERELVAAINWNGGRTYYADSVKGRYTISRDNAKTTVYLQMNSLKPEDTAVYYCAKDGYWVFDYWGQGTQVTVSS | low polyreactivity |
| QVQLVESGGGLVQAGGRLRLSCAASGRIFTYNAMGWYRQAPGKEREFVAAISSGGSTTYADSVKGRFTISRDNAKNTVYLQMNSLKPEDTAVYYCAAGGCRFAIIEYEYWGQGTQVTVSS | low polyreactivity |
| QVQLVESGGGLVQAGGRLRLSCAASGRIFVYYAMGWYRQAPGKERELVAAINAGGSTNYADSVKGRFTISRDNAKNTVYLQMNSLKPEDTAVYYCATDRYWWSGFDYWGQGTQVTVSS | high polyreactivity |
| QVQLVESGGGLVQAGGRLRLSCAASGRIFYHNAMGWYRQAPGKERELVAAITWSGVSTYYADSVKGRFTISRDNAKNTVYLQMNSLKPEDTAVYYCAKRGRWDWDFNYWGQGTQVTVSS | high polyreactivity |
